The DeepSol protein solubility set

test: soluble on expression in E. coli; label from the status in PepcDB or PDB records

Row | Sequence | soluble on expression in E. coli
1 | MSVHESSNEINDEPMDTDSNIPESSGNDPSMEVDDEPESSDAADSFKRFERLLQKTENFSHCLSSGDAKLATGAPVDTKKRGRPSKKNGIDGDHRHRKTEQEEDEEMVADAIKSDDLVIFDKSPFYIENGEMRDYQVRGLNWLASLQHNKINGILADEMGLGKTLQTISMIGYMKHYKNKASPHLVIVPKSTLQNWANEFKKWCPSINAVVLIGDEAARNQVLRDVILPQKFDVCCTTYEMMLKVKTQLKKLNWRYIIIDEAHRIKNEKSKLSETVRELNSENRLLITGTPLQNNLHELWALLNFLLPDIFTSSDDFDSWFSNDAMSGNTDLVQRLHKVLQPFLLRRIKSDVEKSLLPKKEVKVYVGLSKMQREWYTKVLMKDIDIINGAGKVEKARLMNILMHLRKCVNHPYLFDGAEPGPPFTTDQHLVDNSGKMVVLDKLLMKFKEQGSRVLIFSQFSRMLDLLEDFCWWRHYEYCRLDGSTPHEDRSNAIEAYNAPDSKKFIFMLTTRAGGLGINLATADVVIIYDSDWNPQSDLQAMDRAHRIGQKKQVRVFRLITENTVDERIIEKAEAKLRLDNIVIQQGRMSEAQKTLGKGDMISMIRHGAEQVFAAKDSTISDDDIDTILEKAEVKTAELNEKMGKIDENNLRNMTFEDNAKFTVYQFEGENYKAKQADGMGHFWIEPPKRERKANYQVDLYYKEAMRAGNPTEKQSKAPRPKLPQVFDFQFYPRRLFELLDKEIYHYRKTIGYVAERPKDVPPKEAEKRQAEEQKLINNARPLTDKEQEEKAELLTQSVTDWTKREFQQFVRGNEKYGREDLESIAKEMERPLEEIQSYAKVFWERIEELQDSEKVLSQIEKGEARIQRKYAVKKALDAKIAKYKAPFQQLRISYGTNKGKTYTEEEDRFLVCETHRLGHDKENVFEELRQSVRMAPQFRFDWFLKSRTAMELQRRCNTLITLIEREMGEVVESKPVIVTAADKKKSVAKDLSKSSGTPTAKKVKATPK | not soluble
2 | MKILLYFEGEKILAKSGIGRALDHQKRALSEVGIEYTLDADCSDYDILHINTYGVNSHRMVRKARKLGKKVIYHAHSTEEDFRNSFIGSNQLAPLVKKYLISLYSKADHLITPTPYSKTLLEGYGIKVPISAISNGIDLSRFYPSEEKEQKFREYFKIDEEKKVIICVGLFFERKGITDFIEVARQLPEYQFIWFGDTPMYSIPKNIRQLVKEDHPENVIFPGYIKGDVIEGAYAAANLFFFPSREETEGIVVLEALASQQQVLVRDIPVYQGWLVANENCYMGHSIEEFKKYIEGLLEGKIPSTREAGYQVAEQRSIKQIGYELKEVYETVLS | not soluble
3 | MAAHSIFTTTSTTNSFLYPISSSSSSPNINSSFLGVSLNVNAKFGQSLTLYAVTTPKPLTVFAATKKAVAVLKGNSNVEGVVTLSQDDDGPTTVNVRITGLAPGLHGFHLHEYGDTTNGCMSTGAHFNPNKLTHGAPGDEIRHAGDLGNIVANADGVAEVTLVDNQIPLTGPNSVVGRALVVHELEDDLGKGGHELSLTTGNAGGRLACGVVGLTPI | soluble
4 | MKLESLVEEARQCQDRTVAVAAAEDEEVIEAVAMALEHRLGRFVLYGDRERLGRLLKEKGCARFSDVDVVHANSIGQAAELAVRAVHLNEADALMKGHVPTATLLKAVLNKEYGLRTGKVLSHVAVFEVPEFDRFVIVTDAAMNIAPDLEQKAQIVNNAVSIARSIGIERPKVAALAAVETVNPAMPATVDAAALAMMQKRGQIEHCLLDGPLALDNAVSLAAAKHKRIESEVAGQADILLVPDIESGNMLYKSLVYFANARVGAVIAGAKAPIVLTSRADSAESKLYSLALAICSAAK | not soluble
5 | SIPYQEWHSQLQSLYDSQIFHNWALCQDVHLNDEKDGLLLRLIPTRQLQKNTERIENKLLNHIELYLTYSKVYNEPLLLLRIWEEKSIDGIPMTKLMLPTDIESLLDVQGKFQLGLDTIINLEGSVWYSFHPCDTSCIVGDQAEFMSTYLRRWVSIFIFSWLGYEDS | soluble
6 | MELACHECGFKGEVQDFAFLCKNGCPACGESDMRQCPRCGAHVMFSRAAALEKEEMQMRDLCRELAGIERSDKPEVQKRAMELIGGLRRMNERWNIPQLGDFIKQRSRELFF | not soluble
7 | MGHHHHHHSHMANCEGTDGDGTGCNGWFFVQAIVDKQTGDTVSEDEDENATDTGSDMVDFIDDATDICIQAERETAQVLLNMQQAQRDAQTVRALKRKYTDSIESSPLAKSPLQELSIWKWKLTRR | not soluble
8 | NLQPLETTITDVERFKDTVTLELSCPSCDKRFPFGGIVSSNYYRVSYNGLQCKHCEQLFTPLQLTSQIEHSIRAHISLYYAGWLQCDDSTCGIVTRQVSVFGKRCLNDGCTGVMRYKYSDKQLYNQLLYFDSLFDCEKNKKQELKPIYLPDDLDYPKEQLTESSIKALTEQNRELMETGRSVVQKYLNDCGRRYVDMTSIFDFMLN | soluble
